According to IntAct's records for PubMed 18354501:

B1: General transcription factor IIE subunit 1 (Homo sapiens), P29083 (parent)
chain: MADPDVLTEVPAALKRLAKYVIRGFYGIEHALALDILIRNSCVKEEDMLELLKFDRKQLRSVLNNLKGDKFIKCRMRVETAADGKTTRHNYYFINYRTLVNVVKYKLDHMRRRIETDERDSTNRASFKCPVCSSTFTDLEANQLFDPMTGTFRCTFCHTEVEEDESAMPKKDARTLLARFNEQIEPIYALLRETEDVNLAYEILEPEPTEIPALKQSKDHAATTAGAASLAGGHHREAWATKGPSYEDLYTQNVVINMDDQEDLHRASLEGKSAKERPIWLRESTVQGAYGSEDMKEGGIDMDAFQEREEGHAGPDDNEEVMRALLIHEKKTSSAMAGSVGAAAPVTAANGSDSESETSESDDDSPPRPAAVAVHKREEDEEEDDEFEEVADDPIVMVAGRPFSYSEVSQRPELVAQMTPEEKEAYIAMGQRMFEDLFE

Variants of: B1
Conditions: with tf2h1_human GTF2H1, P32780
Chain of tf2h1_human GTF2H1, P32780 (P32780 whole entry): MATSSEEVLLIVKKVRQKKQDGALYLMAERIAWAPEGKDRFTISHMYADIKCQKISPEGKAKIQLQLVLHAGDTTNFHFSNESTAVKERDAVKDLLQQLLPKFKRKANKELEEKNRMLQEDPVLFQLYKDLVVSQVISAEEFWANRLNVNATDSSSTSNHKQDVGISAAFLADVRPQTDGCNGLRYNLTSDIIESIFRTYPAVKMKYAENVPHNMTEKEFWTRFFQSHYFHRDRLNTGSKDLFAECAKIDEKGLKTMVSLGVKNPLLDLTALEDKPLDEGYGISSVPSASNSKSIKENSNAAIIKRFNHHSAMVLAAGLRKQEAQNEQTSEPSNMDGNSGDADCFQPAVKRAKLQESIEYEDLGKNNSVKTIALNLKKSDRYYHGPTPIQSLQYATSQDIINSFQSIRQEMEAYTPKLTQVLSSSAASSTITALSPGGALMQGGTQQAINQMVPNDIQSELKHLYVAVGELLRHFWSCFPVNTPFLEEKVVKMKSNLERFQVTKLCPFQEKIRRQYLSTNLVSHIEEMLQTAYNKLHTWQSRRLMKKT

Variant	effect of a mutation on the interaction
MADPDVLTEVPAALKRLAKYVIRGFYGIEHALALDILIRNSCVKEEDMLELLKFDRKQLRSVLNNLKGDKFIKCRMRVETAADGKTTRHNYYFINYRTLVNVVKYKLDHMRRRIETDERDSTNRASFKCPVCSSTFTDLEANQLFDPMTGTFRCTFCHTEVEEDESAMPKKDARTLLARFNEQIEPIYALLRETEDVNLAYEILEPEPTEIPALKQSKDHAATTAGAASLAGGHHREAWATKGPSYEDLYTQNVVINMDDQEDLHRASLEGKSAKERPIWLRESTVQGAYGSEDMKEGGIDMDAFQEREEGHAGPDDNEEVMRALLIHEKKTSSAMAGSVGAAAPVTAANGSDSESETSESDDDSPPRPAAVAVHKREEDEEEDDEAEEVADDPIVMVAGRPFSYSEVSQRPELVAQMTPEEKEAYIAMGQRMFEDLFE [F387A]	disrupting interaction

Variants of: B1
Conditions: with tf2h1_human GTF2H1, P32780
Remark: another data set of the same source

Variant	effect of a mutation on the interaction
MADPDVLTEVPAALKRLAKYVIRGFYGIEHALALDILIRNSCVKEEDMLELLKFDRKQLRSVLNNLKGDKFIKCRMRVETAADGKTTRHNYYFINYRTLVNVVKYKLDHMRRRIETDERDSTNRASFKCPVCSSTFTDLEANQLFDPMTGTFRCTFCHTEVEEDESAMPKKDARTLLARFNEQIEPIYALLRETEDVNLAYEILEPEPTEIPALKQSKDHAATTAGAASLAGGHHREAWATKGPSYEDLYTQNVVINMDDQEDLHRASLEGKSAKERPIWLRESTVQGAYGSEDMKEGGIDMDAFQEREEGHAGPDDNEEVMRALLIHEKKTSSAMAGSVGAAAPVTAANGSDSESETSESDDDSPPRPAAVAVHKREEDEEEDDEFEEAADDPIVMVAGRPFSYSEVSQRPELVAQMTPEEKEAYIAMGQRMFEDLFE [V390A]	disrupting interaction
